Data reported in patent US20240269235A1.
Where two headings read alike, the source gives them in different places.

Columns and labels:
Experiment in all cases: cell-based or functional assay
[1] = biological target: human IL-2Rα on Treg cells (CD3+, CD4+, CD25hi, FoxP3+) of human PBMC (human) (UniProt P01589)
[2] = biological target: trimeric murine IL-2 receptor (IL-2Rα, IL-2Rβ, and IL-2Rγ) on CTLL-2 cells (murine) (UniProt P01590)
[3] = biological target: trimeric murine IL-2 receptor (IL-2Rα, IL-2Rβ, and IL-2Rγ) on CTLL-2 cells (murine) (UniProt P01590); remark: listed apart in the source

trimeric murine IL-2 receptor (IL-2Rα, IL-2Rβ, and IL-2Rγ) on CTLL-2 cells (murine), sequence (P01590 22-268, chain 1 of 3): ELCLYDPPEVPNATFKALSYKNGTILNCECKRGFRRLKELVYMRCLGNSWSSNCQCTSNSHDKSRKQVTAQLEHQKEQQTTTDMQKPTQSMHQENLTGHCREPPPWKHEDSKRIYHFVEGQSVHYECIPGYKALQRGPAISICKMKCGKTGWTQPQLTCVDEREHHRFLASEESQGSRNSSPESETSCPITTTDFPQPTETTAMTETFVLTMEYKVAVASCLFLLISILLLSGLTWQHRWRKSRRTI
trimeric murine IL-2 receptor (IL-2Rα, IL-2Rβ, and IL-2Rγ) on CTLL-2 cells (murine), sequence (P16297 27-539, chain 2 of 3, further chain): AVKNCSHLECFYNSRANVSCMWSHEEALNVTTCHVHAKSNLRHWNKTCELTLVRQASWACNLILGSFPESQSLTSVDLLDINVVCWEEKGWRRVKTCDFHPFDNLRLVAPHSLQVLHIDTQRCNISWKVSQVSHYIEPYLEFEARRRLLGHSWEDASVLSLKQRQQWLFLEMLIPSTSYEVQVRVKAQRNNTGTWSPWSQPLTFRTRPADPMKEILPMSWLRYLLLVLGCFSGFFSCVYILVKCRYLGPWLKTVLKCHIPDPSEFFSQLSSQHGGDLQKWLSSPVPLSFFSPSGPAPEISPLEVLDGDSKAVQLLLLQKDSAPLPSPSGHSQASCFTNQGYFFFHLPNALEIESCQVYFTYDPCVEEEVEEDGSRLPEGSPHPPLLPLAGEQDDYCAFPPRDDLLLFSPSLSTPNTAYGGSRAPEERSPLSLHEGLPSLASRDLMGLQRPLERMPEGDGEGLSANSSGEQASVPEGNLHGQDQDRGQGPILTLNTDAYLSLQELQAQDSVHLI
trimeric murine IL-2 receptor (IL-2Rα, IL-2Rβ, and IL-2Rγ) on CTLL-2 cells (murine), sequence (P34902 23-369, chain 3 of 3, further chain): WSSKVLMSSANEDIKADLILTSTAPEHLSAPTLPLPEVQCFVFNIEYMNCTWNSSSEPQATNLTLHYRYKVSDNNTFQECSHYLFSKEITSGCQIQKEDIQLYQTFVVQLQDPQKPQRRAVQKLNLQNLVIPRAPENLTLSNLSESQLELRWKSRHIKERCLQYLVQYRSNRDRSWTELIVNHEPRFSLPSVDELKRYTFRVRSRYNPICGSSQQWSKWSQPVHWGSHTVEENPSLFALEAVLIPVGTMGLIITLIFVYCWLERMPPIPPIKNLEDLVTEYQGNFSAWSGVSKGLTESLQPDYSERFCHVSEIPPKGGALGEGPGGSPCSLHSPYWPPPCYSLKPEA
human IL-2Rα on Treg cells (CD3+, CD4+, CD25hi, FoxP3+) of human PBMC (human), sequence (P01589 22-272): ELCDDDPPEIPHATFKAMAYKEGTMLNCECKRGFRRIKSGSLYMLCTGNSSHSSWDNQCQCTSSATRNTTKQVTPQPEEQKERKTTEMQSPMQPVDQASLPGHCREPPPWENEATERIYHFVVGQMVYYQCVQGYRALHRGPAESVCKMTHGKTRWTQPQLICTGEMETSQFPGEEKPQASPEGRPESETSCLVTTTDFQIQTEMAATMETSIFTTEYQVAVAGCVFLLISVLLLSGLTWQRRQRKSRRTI

Proleukin (from UniProt P60568 22-153) (ligand)
Treg EC50, STAT5 activation (PBMC STAT5 assay) [1]: < 1 pM
STAT5 activation of CTLL-2 cells, EC50 [2]: 6 pM
STAT5 activation of CTLL-2 cells, EC50 [3]: 2 pM
